Experimental data from publication PMC2064084.

Molecular target: GST–tubulin tails (ending in either Tyr or Glu)
Assay: pull-down

B1: E442Q Spastin (enzyme)
chain: ESGAVPKRKDPLTHTSNSLPRSKTVMKTGSAGLSGHHRAPSYSGLSMVSGVKQGSGPAPTTHKGTPKTNRTNKPSTPTTATRKKKDLKNFRNVDSNLANLIMNEIVDNGTAVKFDDIAGQDLAKQALQEIVILPSLRPELFTGLRAPARGLLLFGPPGNGKTMLAKAVAAESNATFFNISAASLTSKYVGEGEKLVRALFAVARELQPSIIFIDQVDSLLCERREGEHDASRRLKTEFLIEFDGVQSAGDDRVLVMGATNRPQELDEAVLRRFIKRVYVSLPNEETRLLLLKNLLCKQGSPLTQKELAQLARMTDGYSGSDLTALAKDAALGPIRELKPEQVKNMSASEMRNIRLSDFTESLKKIKRSVSPQTLEAYIRWNKDFGDTTV
  percent of the Spastin bound: 25 to 33%
